# According to article PMC6208348 (Nature Communications, 2018):
# Non-standard residues stand in square brackets, D forms with d. No end group written: not given here. pY = N[C@@H](Cc1ccc(OP(=O)(O)O)cc1)C(=O)O
# B1: mini peptide GGpYGG (peptide)
# peptide: GG[pY]GG
# notes: source: synthetic peptide
# Target: wild-type Src SH2 domain (UniProt P12931 151-248)
# Assay: fluorescence polarisation
# Conditions: both partners purified
binder,measurement,value
B1,Kd,> 50 µM
